Experimental findings from paper PMC4931565, “Higher‐order assemblies of oligomeric cargo receptor complexes form the membrane scaffold of the Cvt vesicle” (EMBO Reports, 2016) are described below.

T1: Saccharomyces cerevisiae mApe1 (mature Ape1 lacking the N-terminal propeptide) (S. cerevisiae), P14904
T1 chain: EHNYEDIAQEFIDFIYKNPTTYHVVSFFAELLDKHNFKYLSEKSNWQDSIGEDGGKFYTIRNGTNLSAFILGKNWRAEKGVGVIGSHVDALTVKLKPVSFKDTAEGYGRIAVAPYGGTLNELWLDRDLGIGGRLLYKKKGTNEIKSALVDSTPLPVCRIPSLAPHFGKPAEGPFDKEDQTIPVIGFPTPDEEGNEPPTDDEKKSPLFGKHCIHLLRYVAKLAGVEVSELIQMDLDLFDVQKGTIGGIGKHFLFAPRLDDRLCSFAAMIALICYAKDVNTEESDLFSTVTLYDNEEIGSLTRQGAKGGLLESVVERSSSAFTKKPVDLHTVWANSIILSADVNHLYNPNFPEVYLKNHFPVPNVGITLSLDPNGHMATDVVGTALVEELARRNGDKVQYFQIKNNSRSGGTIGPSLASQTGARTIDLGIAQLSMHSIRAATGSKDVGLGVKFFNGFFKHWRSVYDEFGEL

B1: Saccharomyces cerevisiae prApe1 (vacuolar aminopeptidase I with its N-terminal propeptide) (natural protein, S. cerevisiae, UniProt P14904 1-514, looked up)
chain: MEEQREILEQLKKTLQMLTVEPSKNNQIANEEKEKKENENSWCILEHNYEDIAQEFIDFIYKNPTTYHVVSFFAELLDKHNFKYLSEKSNWQDSIGEDGGKFYTIRNGTNLSAFILGKNWRAEKGVGVIGSHVDALTVKLKPVSFKDTAEGYGRIAVAPYGGTLNELWLDRDLGIGGRLLYKKKGTNEIKSALVDSTPLPVCRIPSLAPHFGKPAEGPFDKEDQTIPVIGFPTPDEEGNEPPTDDEKKSPLFGKHCIHLLRYVAKLAGVEVSELIQMDLDLFDVQKGTIGGIGKHFLFAPRLDDRLCSFAAMIALICYAKDVNTEESDLFSTVTLYDNEEIGSLTRQGAKGGLLESVVERSSSAFTKKPVDLHTVWANSIILSADVNHLYNPNFPEVYLKNHFPVPNVGITLSLDPNGHMATDVVGTALVEELARRNGDKVQYFQIKNNSRSGGTIGPSLASQTGARTIDLGIAQLSMHSIRAATGSKDVGLGVKFFNGFFKHWRSVYDEFGEL
notes: vacuolar aminopeptidase I (Ape1) of S. cerevisiae, 55-kDa zymogen including the N-terminal propeptide; only TEV cleavage of MBP is described there; also called sc-prApe1; full-length prApe1; source: Sf21, purified (glutathione beads, 3C cleavage, Superose 6); also co-expressed with MBP-Atg19 in Sf21 and co-purified on amylose beads; not shown: GST, N-terminal, cleaved; copies: 12
B2: Saccharomyces cerevisiae mApe1 (mature Ape1 lacking the N-terminal propeptide), P14904 46-514 (natural protein)
chain: T1 chain
B3: Saccharomyces cerevisiae Ams1 (alpha-mannosidase 1), wild type (natural protein, S. cerevisiae, UniProt P22855 1-1083, looked up)
chain: MSSEDIIYDPQFKPVQGIYENRLRQFIDTGGDYHDLNLPKFYDKKRISLDHDHVKVWWYQVSFERGSSPVSPDKRPSWKSIIERDKKGELEFREANINQPFGPSWSTTWFKVKISLPEDWVKSNEQLLFQWDCSNEGIVIDPKTLIPVTAFSGGERTEYVLPKTSDGKHFFYIEAGNNGMFGCGAGSTINPPDDNRFFHLRKADIVWPDLDARALYIDFWMLGDAARELPGDSWQKHQARQLGNAVMNLFDPNDRSSVRKCRELLQREYFDSFLESSKVYEQGESQVLTNVYGIGNCHIDTAWLWPFAETRRKIVRSWSSQCTLMDRFPEYKFVASQAQQFKWLLEDHPEFFNKVLIPKIQQSQFFAVGGTWVENDTNIPSGESLARQFFFGQRFFLKHFGLKSKIFWLPDTFGYSSQMPQLCRLSGIDKFLTQKLSWNNINSFPHSTFNWAGIDGSQLLTHMPPGNTYTADSHFGDVLRTAKQNKTPEYYGSGLMLYGKGDGGGGPTEEMLQKMRRIRSMNNRNGNVIPKLQVGITVDEFYDDILKRTNQGHDLPTWSGELYFEFHRGTYTSQAQTKKLMRLSEIKLHDLEWIAAKTSVLYPDSYKYPSKQINELWENVLLCQFHDVLPGSCIEMVYKYEAVPMLHNVVKECTSLIDKTVQFLQSQSKADLVEMRTLTWSKPEKVSEECSLNGSYTSSVTGYDDYIVLANGKLKVIICKKTGVITSITDETLGVEYLDTEHGRNKLGANQFVIYDDKPLGWQAWDTELYSVNQYKYVTKPKKVQVSCNTKEKCAVEVIFQISEKCKIKSVISLNATAVTDAKLSKVDISTTVENWDARNKFLKVEFPVNIRNDFASYETQFGITKRPTHYNTSWDVAKFEVCHHKFADYSEYSKGVSILNDCKYGFSTHGNLMRLSLLRSPKAPDAHADMGTHEIKYAIYPHRGALSSDTVKLAHEFNYCFKYKLPKDIGMNFDDIISISGDENVILSNIKRGEDDSAVKSNYSLNPRDEQSIVVRVYESLGGESFASLNTTLNLKRIEKVDNLEMKVYKSLTATRDESNHAINRIPIKLRPFEIASFRLYF
notes: alpha-mannosidase 1 (Ams1) of S. cerevisiae, 125-kDa full-length protein (model covers residues up to 1083); Expression from pGAPZ-His6-Ams1; also called His6-Ams1; his-Ams1; source: Pichia pastoris SMD1168, purified
B4: Saccharomyces cerevisiae Ams1 W234E mutant (natural protein, S. cerevisiae, UniProt P22855 1-1083, looked up)
chain: B3 chain with W234E
notes: alpha-mannosidase 1 (Ams1) of S. cerevisiae with W234E in the N-terminal four-helix bundle; Same construct as m4 (pGAPZ-His6-Ams1) with the point mutation; also called W234E dimers; source: Pichia pastoris SMD1168, purified
B5: MBP-Atg19 (Saccharomyces cerevisiae Atg19 with N-terminal MBP) (natural protein, S. cerevisiae, UniProt P35193 1-415, looked up)
chain: MNNSKTNQQMNTSMGYPLTVYDECNKFQLIVPTLDANIMLWCIGQLSLLNDSNGCKHLFWQPNDKSNVRILLNNYDYGHLFKYLQCQRKCSVYIGEGTLKKYNLTISTSFDNFLDLTPSEEKESLCREDAHEDPVSPKAGSEEEISPNSTSNVVVSRECLDNFMKQLLKLEESLNKLELEQKVTNKEPNHRISGTIDIPEDRSELVNFFTELKTVKQLEDVFQRYHDYERLSQECDSKTEIASDHSKKETKIEVEPPNERSLQITMNQRDNSLYFQLFNNTNSVLAGNCKLKFTDAGDKPTTQIIDMGPHEIGIKEYKEYRYFPYALDLEAGSTIEIENQYGEVIFLGKYGSSPMINLRPPSRLSAESLQASQEPFYSFQIDTLPELDDSSIISTSISLSYDGDDNEKALTWEEL
notes: autophagy receptor Atg19 of S. cerevisiae, from cDNA; source: Sf21, purified (amylose beads, eluted with maltose); also in Sf21 lysate, co-expressed with prApe1; not shown: MBP, N-terminal, kept
B6: Saccharomyces cerevisiae Atg19 (MBP tag cleaved) (natural protein, S. cerevisiae, UniProt P35193 1-415, looked up)
chain: B5 chain
notes: autophagy receptor Atg19 of S. cerevisiae, from cDNA; also called trimeric Atg19; source: Sf21, purified (amylose beads, TEV cleavage, DEAE ion exchange); or co-purified with prApe1 (amylose beads, TEV cleavage, Superose 6); not shown: MBP, N-terminal, cleaved

For data set [1], the target named is Chaetomium thermophilum mApe1 (Chaetomium thermophilum). The data set is described as follows: crystal structure; ct-mApe1, hanging drop, 4 C, 100 mM Hepes pH 6.6, 4 M sodium formate; 2.8 A.
The target is the same in data set [2]. Kind of data set: negative stain EM; purified protein or purified complex, 2% uranyl acetate, droplet technique; particles and class averages.
Data set [3] concerns the molecule itself. The data set is described as above.
Data set [4] addresses T1, Saccharomyces cerevisiae mApe1 (mature …). Described as above. The settings on record: remark: other sources report otherwise.
For data set [5] the target is unchanged. Kind of data set: negative stain EM; GraFix-purified sc-mApe1 (10-30% glycerol with 0-0.15% glutaraldehyde gradient, 50 mM Hepes pH 7.5, 150 mM NaCl); 3D reconstruction with tetrahedral symmetry, 24 A. As to conditions: remark: other sources report otherwise.
Data set [6] deals with the molecule itself. Kind of data set: cryo-EM structure; His6-Ams1 0.4 mg/ml in 50 mM Tris-HCl, 175 mM NaCl, 75 mM imidazole; D2 symmetry, 6.3 A.
Data set [7] deals with B3. The data set is described as follows: pull-down; purified MBP-Atg19 or MBP (1 uM) mixed with his-Ams1 (1 uM), mApe1 (1 uM) or prApe1 (0.7 uM) overnight at 4 C in 50 mM Tris-HCl pH 7.5, 25 mM NaCl, 5 mM MgCl2, 1 mM DTT, 0.2% NP-40; captured on amylose beads; SDS-PAGE, Coomassie. As to conditions: both partners purified.
Data set [8] deals with the molecule itself. The data set is described as follows: SEC-MALS; Atg19 about 2 mg/ml, 50 mM Tris pH 7.5, 150 mM NaCl, 0.5 mM TCEP, Superose 6 increase, room temperature, triplicate. Background: In gel filtration, larger molecules generally elute earlier.

Numbering of substitutions follows the chain as printed. Names may count otherwise. “And” between values parts separate entries of the source, which are not always exact repeats. Equal values may be shown once.

On to “Chaetomium thermophilum mApe1 (natural protein)”, for which the stoichiometry N in data set [1] and in data set [2] was 12 each time.
Regarding B1, the “stoichiometry N” value in data set [3] amounted to 12.
Consider B2, for which the stoichiometry N in data set [4] was 12 and 6; in data set [5], 12.
Turning to B3, the “stoichiometry N” value in data set [6] is 4.
For the molecule B4, the “stoichiometry N” value in data set [3] is 2.
Turning to B5, in data set [7], the binding result is recorded as “binds”.
In the case of B6, the “stoichiometry N” value in data set [8] was 3.

The stoichiometry N is the number of molecules, sites or subunits per partner or assembly.
